Measured values: the supplement of paper PMC10567573

B1: IKZF1 (parent)
chain: YHSQDRYEFSSHITRGEHRFHMS
B2: STX5 (parent)
chain: RSEFTLMAKRIGKDLSNTFAKLEK

Variants of: B1
Test: protein stability index of a GFP-peptide fusion (GPS, HEK-293T) (PSI 1-6); higher = more stable
Conditions: c terminus: native
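Note: lentivirally expressed fusions sorted by FACS into six bins by GFP to DsRed ratio, PSI derived from sequencing read proportions per bin multiplied by bin number.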

Protein stability index: each site, then its substitutions
F20: C 2.12 | D 1.76 | E 1.42 | G 1.67 | H 1.93 | I 3.73 | K 2.38 | L 2.37 | M 1.83 | N 2.56 | P 1.59 | Q 2.5 | R 2.36 | S 2.05 | T 1.75 | V 1.39 | W 2.93 | Y 1.75
H21: A 2.43 | C 1.69 | D 2.15 | E 1.44 | F 1.98 | G 2.11 | I 3.07 | K 1.37 | L 2.13 | M 1.6 | N 2.27 | P 1.89 | Q 2.22 | R 2.88 | S 1.89 | T 2.04 | V 2.25 | W 1.81 | Y 1.76
M22: A 2.58 | C 3.14 | D 1.94 | E 1.82 | F 1.53 | G 3.65 | H 1.66 | I 2.48 | K 1.46 | L 1.4 | N 2.06 | P 2.01 | Q 2.11 | R 1.99 | S 2.03 | T 2.06 | V 2 | W 1.65 | Y 1.56
S23: A 1.8 | C 1.94 | D 1.5 | E 1.5 | F 2.01 | G 2 | H 2.23 | I 2.18 | K 2.28 | L 1.68 | M 1.62 | N 2.08 | P 2 | Q 2.68 | R 1.61 | T 2.02 | V 1.97 | W 2.5 | Y 2.42

Variants of: B2
Test: as above
Conditions: c terminus: a fixed tail appended

Protein stability index, by site and new letter:
R1: A 2.12 | D 1.92 | E 1.45 | H 3.98 | I 1.92 | K 2.08 | L 3.25 | N 1.82 | P 2.63 | Q 1.49 | S 2.54 | T 2.7 | V 2.54 | Y 4.8
S2: A 1.36 | C 3.2 | D 1.66 | F 2.72 | G 1.51 | N 1.03 | P 2.07 | Q 3.27 | T 1.9 | W 2.39
E3: C 2.91 | H 2.61 | K 2.75 | L 4.31 | M 2.25 | P 4.75 | Q 4.2 | R 3.64 | T 3.43 | Y 2.51
F4: A 2.48 | C 2.65 | D 3.88 | E 4.58 | G 3.64 | H 3.31 | K 3.62 | L 2.33 | M 2.35 | N 2.98 | P 3.58 | Q 3.49 | R 3.34 | S 3.69 | V 1.8 | W 3.86 | Y 2.1
T5: C 1.8 | D 2.25 | E 1.35 | F 3.04 | H 2.58 | I 2.62 | K 1.54 | L 2.46 | N 2.57 | P 2.69 | Q 1.02 | W 2.76
L6: C 2.21 | D 1.4 | F 2.36 | G 1.63 | H 1.86 | I 3.08 | N 2.06 | P 2.85 | Q 2.23 | R 3.66 | T 2.48 | V 2.28 | W 2.53
M7: A 1.64 | C 1.01 | D 4.15 | E 3.2 | F 3.38 | G 2.73 | H 2.03 | K 3.75 | N 3.04 | P 3.36 | Q 3.21 | R 2.72 | S 3.12 | T 2.54 | V 2.73 | W 3.31 | Y 2.39
A8: C 2.49 | D 3.02 | E 2.87 | G 2.49 | H 3.46 | I 2.79 | K 2.99 | N 3.4 | P 3.46 | Q 2.96 | R 2.79 | S 2.1 | T 1.54 | W 2.44 | Y 1.85
K9: A 1.66 | C 2.1 | D 2.83 | E 2.56 | F 1.53 | G 2.01 | H 2.64 | I 1.82 | L 1.88 | M 1.92 | N 2.63 | P 2.94 | Q 2.54 | R 2.04 | S 2.87 | T 2.06 | V 2.17 | W 1.97 | Y 2.99
R10: A 2.85 | C 2.66 | D 3.12 | E 2.94 | F 2.29 | G 2.35 | H 2.01 | I 1.95 | K 3.31 | L 2.73 | M 1.99 | N 2.36 | P 4.03 | Q 1.05 | S 2.11 | T 1.99 | V 1.09 | W 2.02 | Y 1.28
I11: A 2.77 | C 2.06 | D 3.84 | E 3.9 | F 3.65 | G 3.41 | H 3.46 | K 2.93 | L 1.57 | M 1.65 | N 4.29 | P 3.52 | Q 3.33 | R 3.81 | S 3.87 | T 3.13 | V 1.16 | W 1.18 | Y 2.14
G12: C 2.2 | D 2.9 | E 2.42 | F 2.15 | H 2.87 | K 2.79 | L 3.53 | M 2.58 | N 1.81 | P 3.81 | Q 1.69 | R 2.16 | S 3.15 | V 1.54
K13: A 1.49 | C 2.46 | D 3.34 | E 2.34 | F 3.26 | G 2.84 | L 2.83 | M 1.07 | N 2.06 | P 2.54 | Q 2.35 | R 2.33 | S 2.55 | T 1.46 | V 2.1
D14: A 4.25 | C 2.71 | E 4.59 | G 3.97 | I 4.05 | K 3.03 | L 2.61 | M 2.59 | P 2.49 | Q 4.98 | S 2.13 | T 4.17 | V 2.64 | Y 2.65
L15: A 2.59 | C 1.53 | D 3.46 | E 3.89 | F 2.92 | G 3.75 | H 2.6 | I 3.43 | K 3.24 | M 2.72 | N 3.79 | P 3.14 | Q 3.1 | R 2.97 | S 2.81 | T 3.27 | V 1.9 | W 2.05 | Y 2.4
S16: C 1.65 | D 2.45 | E 1.41 | F 4.43 | G 2.41 | I 3.35 | K 3.85 | L 2.89 | M 1.72 | P 2.46 | Q 2.14 | R 3.34 | V 3.75 | W 1.99 | Y 3.19
N17: A 3.04 | C 2.02 | D 2.63 | E 3.15 | F 2.34 | G 3 | I 3.01 | L 2.21 | P 2.5 | Q 1.61 | S 3.13 | T 2.75 | W 1.81 | Y 1.93
T18: A 2.31 | C 2.41 | D 3.07
